Measured values as given in patent US20240383995A1 (SHANGHAI HENLIUS BIOTECH, published 2024).

Target: T1, Human OX40 expressed on transfected Jurkat or CHO cells (human, UniProt P43489 29-277)
T1 construct: also called human OX40/Jurkat; human OX40/CHO
T1 sequence: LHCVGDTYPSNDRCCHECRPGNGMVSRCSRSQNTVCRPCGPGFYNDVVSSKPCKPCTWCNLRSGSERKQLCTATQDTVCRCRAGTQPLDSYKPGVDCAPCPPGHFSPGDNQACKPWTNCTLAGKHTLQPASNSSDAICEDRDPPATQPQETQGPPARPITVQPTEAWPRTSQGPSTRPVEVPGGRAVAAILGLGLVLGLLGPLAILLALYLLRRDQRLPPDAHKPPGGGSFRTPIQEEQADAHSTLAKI
Assay: flow cytometry on human OX40-transfected Jurkat cells, Alexa Fluor488 anti-human IgG Fc, Geo MFI
Procedure: FIGS. 2A-2C depict whole cell binding of humanized anti-OX40 antibodies to human or cynomolgus OX40 assessed by flow cytometry. Human OX40-expressing Jurkat cells (FIG. 2A), human OX40-expressing CHO cells (FIG. 2B) and cynomolgus OX40-expressing CHO cells (FIG. 2C) were incubated with indicated anti-OX40 bivalent antibodies, and then stained with Alexa Fluor488 conjugated anti-human IgG Fc antibody. The fluorescence intensity was measured by flow cytometry.
Bivalent antibodies of these 15 clones were made by fusing VHH to human IgG1 Fc, expressed in ExpiCHO cells, and purified by Protein A affinity column. Binding affinity of the VHH-Fc bivalent antibodies to human or cynomolgus OX40 was evaluated by flow cytometry using Jurkat cells transfected with human OX40 (human OX40/Jurkat) (FIG. 2A), CHO cells transfected with human OX40 (human OX40/CHO) (FIG. 2B), and CHO cells transfected with cynomolgus OX40 (cyno OX40/CHO) (FIG. 2C). These antibodies with indicated concentrations were incubated with the cells in FACS buffer (3% FBS in PBS) on ice for 30 min, and the free antibodies were washed out with FACS buffer. […] Binding affinity was calculated using GraphPad Prism three parameter logistic equation. […]

B1: 1B3 VHH-Fc bivalent antibody (antibody, human IgG1, V domains shown)
VH: EVQLVESGGGLVQPGGSLRLSCAASGPLGMPSIAWFRQAPGKGLEFVSGIAWSTGDTYYADSVKGRFTISRDNSKNTLYLQMNSLRAEDTAVYYCAADTQVHYMGRHDIRDREEYDYWGQGTLVTVSS
notes: no light chain; also called 1B3-bivalent
EC50 (read off the curve): ~3 nM
